From publication PMC6814707 (Communications Biology, 2019)
One block for each binder: values may come before it.

Experiments:
[1] = biological target: recombinant human PD-1 protein (residues 21-167) (human) (UniProt Q15116); assay: ELISA; blocking: plates coated with 0.5 ug/mL PD-1 (21-167); antibody from 3 ug/mL, 1.5-fold dilutions, 37 °C 120 min; then 1 ug/mL PD-L1-mFc, detected with HRP-anti-mouse Fc
[2] = biological target: T1, human PD-1 extracellular domain (residues 21-167) (Homo sapiens, UniProt Q15116, N-linked glycans seen at N49, N58 and N116 (N58: two N-acetylglucosamines, one fucose and two mannoses; N49 and N116: one N-acetylglucosamine modelled); N74 ambiguous); assay: crystal structure; PD-1 (21-167) and MW11-h317 Fab mixed 1:2, complex purified on Superdex 200; crystals at 16 °C in 0.1 M Bis-Tris pH 6.5, 28% PEG monomethyl ether 2000; 2.9 Å; two complexes per asymmetric unit; conditions: both partners purified
T1 construct: Construct used for the complex with MW11-h317 Fab and its crystal structure; also called hPD-1; Programmed cell death protein 1; source: CHO cells, electrotransfected; purified from supernatant by a nivolumab-coupled resin
T1 sequence (Q15116 21-167): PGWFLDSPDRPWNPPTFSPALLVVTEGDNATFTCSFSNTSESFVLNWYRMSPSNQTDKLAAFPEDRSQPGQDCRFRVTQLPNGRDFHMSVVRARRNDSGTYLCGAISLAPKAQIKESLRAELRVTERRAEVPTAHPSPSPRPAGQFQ

Chain of recombinant human PD-1 protein (residues 21-167) (human) (Q15116 21-167): as above

- IC50 [1]: 1.4 nM
B1: MW11-h317 (humanized anti-PD-1 monoclonal antibody) (antibody, V domains shown)
VH: EVQLVESGGGLVKPGGSLRLSCAASGFTFSSYDMSWVRQAPGKGLEWVATISGGGSYTYYPDSVKGRFTISRDNAKNSLYLQMNSLRAEDTAVYYCASPDSSGVAYWGQGTLVTVSS
VL: DIVMTQSPLSLPVTPGEPASITCKASQDVETVVAWYLQKPGQSPRLLIYWASTRHTGVPDRFSGSGSGTDFTLKISRVEAEDVGVYYCQQYSRYPWTFGQGTKLEIK

- stoichiometry N [2]: 1
B2: MW11-h317 Fab (Fab, V domains shown)
VH: B1 VH
VL: B1 VL
notes: heavy chain of the Fab in the structure deposited here (PDB 6JJP); light chain of the Fab in the structure deposited here (PDB 6JJP); The methods speak of plasmids encoding VL and VH; also called MW11-h317 Fab fragment; source: HEK 293, co-transfected with two plasmids; purified from supernatant (Protein G, HiTrap Capto S)
